This note sets out measurements from patent publication US20230094867A1 (Janssen / Centocor, published 2023).

Assay [1] has as its target T1, CD79b CAR (CD9B441-HL) expressed on SupT1 cells.
T1 construct: Chimeric antigen receptor with the CD9B441 scFv in VH-VL order; also called SupT1-CD9B441-HL; CD9B441-HL SupT1 cells
Description: flow cytometry on live CD9B441-HL SupT1 cells with directly rPE-conjugated antibody; PE median fluorescence intensity. On the technique in general: Flow cytometry measures light scatter and fluorescence of single cells or particles in a stream.

For assay [2], the target named is T2, CD9B574 (CD9B441-LH-scFv-Fc monovalent fusion protein).
T2 construct: Described only as CD9B441-LH-scFv-Fc monovalent fusion protein
The assay is described as follows: SPR (Biacore), mAb captured on anti-mouse Fc chip, scFv-Fc antigen 100 nM to 0.16 nM in solution. Here is the method:
(§1) Biacore system (Cytiva) was used to measure bio-molecular interactions by surface plasmon resonance (SPR). Anti-Mouse Fc antibody directly immobilized on a CMS sensor chip. Library Antibodies (Mouse IgG2a) diluted to 1 ug/ml to reach approximately 20-60 RU. Antigens (scFv Fc fusions) are associated at 100 nM to 0.16 nM, 1:5 dilutions for 3 minutes. Dissociation for 30 mins. The results of the assay (Table 1 below) show the nanomolar dissociation constant of A003B192 and A003B274 with CD9B503 (CD9B441-HL-scFv-Fc bivalent fusion protein) and CD9B574 (CD9B441-LH-scFv-Fc monovalent fusion protein).

Assay [3] concerns the target T3, CD9B503 (CD9B441-HL-scFv-Fc bivalent fusion protein) (Biotinylated in the panning and MSD screening assays of Example 1.).
T3 construct: also called CD9B441-derived scFv-fusion protein
The description is as above. Here is the method: as §1

The target in assay [4] is T1, CD79b CAR (CD9B441-HL) expressed on …. Description: flow cytometry on live CD9B441-HL SupT1 cells, detected with PE goat anti-mouse IgG; PE median fluorescence intensity. Here is the method: SupT1 cells expressing CD9B441-HL were compared to parental CAR-SupT1 cells. Cells (200,000 cells/well) were stained with LIVE/DEAD Fixable Near-IR viability dye (Life Technologies cat #L10119) and then incubated with increasing concentrations of A003B192 and A003B274 for 45 minutes on ice. In addition, both anti-idiotypic antibodies were tested in the presence of Fc-CD9B441-HL fusion protein to assess the specificity of A003B192 and A003B274 binding to CD9B441-HL CAR. Following incubation, the samples were washed with BSA stain buffer (BD Biosciences cat #554657) and stained with PE-goat anti-mouse IgG polyclonal antibody (Biolegend cat #405307) to detect bound antibody on live CAR+SupT1 cells. After incubation, washing, and fixation (Cytofix, BD Biosciences cat #554655), the samples were acquired on a 10 color FACSCanto II (BD Biosciences) flow cytometer. Analysis was done using FlowJo (TreeStar) and the PE median fluorescent intensity of live CAR+SupT1 cells plotted in FIG. 3A. No binding was detected on CAR-SupT1 parental cells (data not shown) or in the presence of excess Fc-CD9B441-HL CAR fusion protein.

Assay [5] concerns the target T3, CD9B503 (CD9B441-HL-scFv-Fc bivalent …). The assay is described as follows: MSD electrochemiluminescent immunoassay, crude Fab lysate on biotinylated scFv-Fc on streptavidin plate. As to the method:
The monoclonal Fab lysates prepared from the enriched Fab libraries were screened in Meso Scale Discovery (MSD) based electro-chemiluminescent immunoassays (ECLIA) for binding to CD9B503 but not to a similar negative control scFv fusion protein CD9B504 (CD9B449-HL-scFv Fc). Biotinylated ScFv-Fc fusion antigens, target antigen CD9B503 or negative control scFv fusion protein counter screening reagent CD9B504, were diluted to a concentration of 2.5 nM in SuperBlock T20 (TBS) Blocking Buffer (Thermo cat #37536) and 50 ul/well was added to their respective MSD 384-well streptavidin plates (Meso Scale Discovery cat #L21SA-5) and incubated on a shaker for 30 min at RT. The plates were washed 1×80 ul/well 1×PBST and crude Fab lysates from E. coli expressions in 96-well plates were stamped into the 384-well assay plates in duplicate and incubated on a shaker for 1 hour at RT. The assay plates were washed 1×80 ul/well 1×PBST and 6 nM of SULFO-TAG Anti-human/NHP Kappa Antibody (Meso Scale cat #D20TF-6) added at 10 ul/well, and the plates incubated on a shaker for 1 hour at RT. The plates were washed 2×80 ul/well 1×PBST and 35 ul/well of 1×MSD Read Buffer T (Meso Scale cat #R92TC-1) added to each well and the plates analyzed on an MSD Sector 5600 plate reader. […]

“And” between values parts separate entries of the source, which are not always exact repeats. Identical values can stand only once.

T1 sequence (chain, as listed by the source limits assumed): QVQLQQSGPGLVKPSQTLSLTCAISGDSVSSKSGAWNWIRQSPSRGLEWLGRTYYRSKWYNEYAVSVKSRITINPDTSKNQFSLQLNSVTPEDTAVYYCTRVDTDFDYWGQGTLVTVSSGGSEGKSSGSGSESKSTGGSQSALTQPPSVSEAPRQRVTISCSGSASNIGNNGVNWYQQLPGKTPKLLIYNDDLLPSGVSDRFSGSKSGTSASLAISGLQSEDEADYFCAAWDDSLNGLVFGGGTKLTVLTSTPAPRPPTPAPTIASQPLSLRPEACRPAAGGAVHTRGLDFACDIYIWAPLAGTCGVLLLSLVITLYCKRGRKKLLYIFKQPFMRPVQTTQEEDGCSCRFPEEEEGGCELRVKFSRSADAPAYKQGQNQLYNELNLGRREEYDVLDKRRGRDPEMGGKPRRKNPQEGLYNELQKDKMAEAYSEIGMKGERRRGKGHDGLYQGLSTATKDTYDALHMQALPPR
T3 sequence (scFv, as listed by the source limits assumed): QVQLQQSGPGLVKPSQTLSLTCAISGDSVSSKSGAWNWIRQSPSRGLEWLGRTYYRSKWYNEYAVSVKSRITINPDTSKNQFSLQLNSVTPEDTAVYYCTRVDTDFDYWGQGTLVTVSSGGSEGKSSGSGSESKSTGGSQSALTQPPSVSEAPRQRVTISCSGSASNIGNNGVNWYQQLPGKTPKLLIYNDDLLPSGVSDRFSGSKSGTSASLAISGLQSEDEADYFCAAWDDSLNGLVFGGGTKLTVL
T2 sequence (scFv, as listed by the source limits assumed): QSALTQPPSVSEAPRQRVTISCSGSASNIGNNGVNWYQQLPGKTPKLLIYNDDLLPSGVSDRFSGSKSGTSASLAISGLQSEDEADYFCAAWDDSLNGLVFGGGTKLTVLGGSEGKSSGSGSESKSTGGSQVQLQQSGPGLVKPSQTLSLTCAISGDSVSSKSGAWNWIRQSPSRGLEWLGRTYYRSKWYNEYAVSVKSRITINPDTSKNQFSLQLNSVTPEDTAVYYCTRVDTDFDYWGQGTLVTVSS

B1: recombinant phycoerythrin-conjugated A003B192 (antibody, mouse IgG2a, kappa, V domains shown)
VH: QVQLVQSGAEVKKPGSSVKVSCKASGGTFKSDAISWVRQAPGQGLEWMGGIRPNEGNAEYAQKFQGRVTITADESTSTAYMELSSLRSEDTAVYYCARGRYGAYRLVYYAFDYWGQGTLVTVSS
VL: not shown
modifications: antibody conjugated to recombinant phycoerythrin (rPE), 1:1 PE:antibody; site of attachment not stated
notes: also called A003B192 conjugated to rPE; PE-antibody conjugate
Consider B1, for which the binding result in assay [1] is “binds”.

B2: A003B192 (antibody, mouse IgG2a, kappa, V domains shown)
VH: QVQLVQSGAEVKKPGSSVKVSCKASGGTFKSDAISWVRQAPGQGLEWMGGIRPNEGNAEYAQKFQGRVTITADESTSTAYMELSSLRSEDTAVYYCARGRYGAYRLVYYAFDYWGQGTLVTVSS
VL: not shown
notes: also called anti-idiotypic antibody A003B192; HC construct PBD000109791 / LC construct PBD00098715
A word on the EC50 (read off the curve): it is the concentration that produces a half-maximal response. High values mean weaker potency, low ones greater potency. With B2, the Kd in assay [2] is 1.6 nM and 1.61 nM; in assay [3], 0.04 nM and 0.037 nM. In addition, the “EC50 (read off the curve)” value in assay [4] was roughly 0.02 µg/mL.

B3: CL002588468 (monoclonal Fab, parent clone for the VH and VL in A003B192) (Fab, V domains shown)
VH: QVQLVQSGAEVKKPGSSVKVSCKASGGTFKSDAISWVRQAPGQGLEWMGGIRPNEGNAEYAQKFQGRVTITADESTSTAYMELSSLRSEDTAVYYCARGRYGAYRLVYYAFDYWGQGTLVTVSS
VL: not shown
notes: Soluble human Fab in crude E. coli lysate
Consider B3, for which the “signal ratio of CD9B503 over CD9B504” value in assay [5] worked out at 10.

B4: A003B274 (antibody, mouse IgG2a, kappa, V domains shown)
VH: QVQLVQSGAEVKKPGSSVKVSCKASGGTFKSYAISWVRQAPGQGLEWMGYISPESGTANYAQKFQGRVTITADESTSTAYMELSSLRSEDTAVYYCARERYYYGYRRYRYYGMDVWGQGTLVTVSS
VL: not shown
notes: also called anti-idiotypic antibody A003B274; HC construct PBD000109922 / LC construct PBD00098715
Take B4: in assay [3], the Kd is 0.23 nM and 0.226 nM. Also, the “EC50 (read off the curve)” value in assay [4] was roughly 0.04 µg/mL.

B5: CL002588437 (monoclonal Fab, parent clone for the VH and VL in A003B274) (Fab, V domains shown)
VH: QVQLVQSGAEVKKPGSSVKVSCKASGGTFKSYAISWVRQAPGQGLEWMGYISPESGTANYAQKFQGRVTITADESTSTAYMELSSLRSEDTAVYYCARERYYYGYRRYRYYGMDVWGQGTLVTVSS
VL: not shown
notes: as for B3
B5: in assay [5], the “signal ratio of CD9B503 over CD9B504” value was 10.
